The target in data set [1] is avian polyomavirus (APV) major capsid protein VP1 (avian polyomavirus (APV), strain BFDV-5) (UniProt P13891). In words: negative-stain electron microscopy.
Data set [2] has the same target. Nature of the data set: cryo-EM structure.
The data set “cryo-EM structure” concerns the molecule itself. Nature of the data set: cryo-EM structure.

Regarding “avian polyomavirus (APV) major capsid protein VP1 (from UniProt P13891 1-343) (natural protein)”, the stoichiometry N in data set [1] and in data set [2] was 5 throughout.

B1: simian virus 40 (SV40) wild-type VP1, in virus-like particles (natural protein)
chain: APTKRKGSCPGAAPKKPKEPVQVPKLVIKGGIEVLGVKTGVDSFTEVECFLNPQMGNPDEHQKGLSKSLAAEKQFTDDSPDKEQLPCYSVARIPLPNINEDLTCGNILMWEAVTVKTEVIGVTAMLNLHSGTQKTHENGAGKPIQGSNFHFFAVGGEPLELQGVLANYRTKYPAQTVTPKNATVDSQQMNTDHKAVLDKDNAYPVECWVPDPSKNENTRYFGTYTGGENVPPVLHITNTATTVLLDEQGVGPLCKADSLYVSAVDICGLFTNTSGTQQWKGLPRYFKITLRKRSVKNPYPISFLLSDLINRRTQRVDGQPMIGMSSQVEEVRVYEDTEELPGDPDMIRYIDEFGQTTTRMQ
Consider B1, for which the binding result in the data set “cryo-EM structure” is “binds”.

By stoichiometry N is commonly meant a count of units in the complex or per binding partner.
